One data set deals with T1, GST-tagged COUP-TFII (mouse, UniProt P43135 1-414).
T1 construct: COUP transcription factor 2 (COUP-TFII, Nr2f2); Nr2f2 cDNA cloned into pGEX2TK; also called COUP-TFII-GST; source: E. coli BL21, purified
T1 sequence (looked up): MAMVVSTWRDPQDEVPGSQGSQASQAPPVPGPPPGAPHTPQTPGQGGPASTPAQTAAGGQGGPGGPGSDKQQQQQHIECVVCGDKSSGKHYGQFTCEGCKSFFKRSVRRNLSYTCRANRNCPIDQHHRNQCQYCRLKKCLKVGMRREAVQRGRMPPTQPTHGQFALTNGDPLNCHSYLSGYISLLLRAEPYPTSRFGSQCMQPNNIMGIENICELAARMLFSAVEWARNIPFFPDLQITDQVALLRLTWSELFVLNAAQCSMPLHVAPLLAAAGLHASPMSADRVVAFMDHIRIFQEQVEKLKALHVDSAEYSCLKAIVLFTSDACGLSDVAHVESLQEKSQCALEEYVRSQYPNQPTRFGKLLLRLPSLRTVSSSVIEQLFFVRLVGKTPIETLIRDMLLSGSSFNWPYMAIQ
Briefly: native gel or EMSA; NKX2-3 and COUP-TFII-GST co-incubated with labelled St6gal1 NCCE probe; complex seen on DNA. To be noted: both partners purified.

The target of data set [1] is T2, COUP-TFII (recombinant, His- and T7-tagged) (mouse, UniProt P43135 1-414).
T2 construct: COUP transcription factor 2 (COUP-TFII, Nr2f2), mouse; cDNA PCR-amplified from mouse cDNA as BamHI-EcoRI fragment and cloned into pET21-A; also called Nr2f2; NR2F2; source: E. coli BL21, purified
T2 sequence (looked up): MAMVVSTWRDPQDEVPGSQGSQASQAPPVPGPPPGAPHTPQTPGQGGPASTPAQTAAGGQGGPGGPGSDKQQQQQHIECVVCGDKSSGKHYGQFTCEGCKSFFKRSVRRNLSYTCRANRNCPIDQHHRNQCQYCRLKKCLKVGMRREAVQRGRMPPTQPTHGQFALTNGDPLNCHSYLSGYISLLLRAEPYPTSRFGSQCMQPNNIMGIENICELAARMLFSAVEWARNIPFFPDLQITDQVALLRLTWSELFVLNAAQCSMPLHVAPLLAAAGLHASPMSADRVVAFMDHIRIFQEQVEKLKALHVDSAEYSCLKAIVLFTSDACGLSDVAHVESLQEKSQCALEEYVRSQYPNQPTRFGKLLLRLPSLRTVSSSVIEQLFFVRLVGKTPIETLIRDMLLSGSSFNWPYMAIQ
Briefly: native gel or EMSA; recombinant proteins co-incubated with labelled Madcam1 CE probes (native CE, CE_ΔC_A, CE_ΔN_ΔC_A); 4 °C, 20% glycerol, 20 mM Tris pH 8.0, 10 mM KCl, 1 mM DTT, poly dI/C, BSA; 6% gel; supershift with anti-NKX2-3; complex seen on DNA. Conditions: both partners purified.

Data set [2] deals with T3, NKX2-3 (mouse, UniProt P97334 1-362). Briefly: EMSA; inhibited by cold WT probe; EMSA: 20 mM Tris pH 8.0, 10 mM KCl, 1 mM DTT, 20% glycerol, 12.5 ng poly dI/C, 6.25 pmol random ss oligo, BSA, 1-2 pmol probe, 4 C. To be noted: protein: recombinant; tags: His, T7 (pET21A); label: labeled; blunt. A general note: A gel shift assay detects complexes by their altered migration in electrophoresis.

In the next data set the target is T4, COUP-TFII-GST (mouse, UniProt P43135 1-414).
T4 sequence: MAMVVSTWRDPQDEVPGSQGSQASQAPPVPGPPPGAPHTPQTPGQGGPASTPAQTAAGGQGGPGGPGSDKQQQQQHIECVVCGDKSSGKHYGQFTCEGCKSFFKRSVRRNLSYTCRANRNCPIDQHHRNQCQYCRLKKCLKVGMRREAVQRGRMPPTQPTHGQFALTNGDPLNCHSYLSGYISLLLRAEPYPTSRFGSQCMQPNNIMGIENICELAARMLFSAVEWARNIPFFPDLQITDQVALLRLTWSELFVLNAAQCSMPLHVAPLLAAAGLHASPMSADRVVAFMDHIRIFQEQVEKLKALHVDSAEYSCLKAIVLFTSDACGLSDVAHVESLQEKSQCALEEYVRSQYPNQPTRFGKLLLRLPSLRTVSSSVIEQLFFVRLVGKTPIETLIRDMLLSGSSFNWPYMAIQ
Described as above. To be noted: protein: recombinant; tags: GST (pGEX2TK); chain copies: 2; label: labeled; blunt.

A further data set deals with NKX2-3;COUP-TFII-GST (mouse;mouse, UniProt P97334;P43135 1-362;1-414, |). Put plainly: EMSA; EMSA: 20 mM Tris pH 8.0, 10 mM KCl, 1 mM DTT, 20% glycerol, 12.5 ng poly dI/C, 6.25 pmol random ss oligo, BSA, 1-2 pmol probe, 4 C. Conditions: protein: recombinant;recombinant; tags: His, T7 (pET21A);GST (pGEX2TK); copies: 1;1; label: labeled; blunt.
Data set [3] concerns the target T5, NKX2-3;COUP-TFII (mouse;mouse, UniProt P97334;P43135 1-362;1-414, |). Put plainly: EMSA; supershift with anti-NKX2-3; EMSA: 20 mM Tris pH 8.0, 10 mM KCl, 1 mM DTT, 20% glycerol, 12.5 ng poly dI/C, 6.25 pmol random ss oligo, BSA, 1-2 pmol probe, 4 C. To be noted: protein: recombinant;recombinant, tags: His, T7 (pET21A);His, copies: 1;1, blunt.
Data set [4] deals with T3, NKX2-3. Briefly: EMSA; EMSA: 20 mM Tris pH 8.0, 10 mM KCl, 1 mM DTT, 20% glycerol, 12.5 ng poly dI/C, 6.25 pmol random ss oligo, BSA, 1-2 pmol probe, 4 C. To be noted: protein: recombinant; tags: His, T7 (pET21A); blunt.
The target of data set [5] is T6, COUP-TFII (mouse, UniProt P43135 1-414).
T6 sequence: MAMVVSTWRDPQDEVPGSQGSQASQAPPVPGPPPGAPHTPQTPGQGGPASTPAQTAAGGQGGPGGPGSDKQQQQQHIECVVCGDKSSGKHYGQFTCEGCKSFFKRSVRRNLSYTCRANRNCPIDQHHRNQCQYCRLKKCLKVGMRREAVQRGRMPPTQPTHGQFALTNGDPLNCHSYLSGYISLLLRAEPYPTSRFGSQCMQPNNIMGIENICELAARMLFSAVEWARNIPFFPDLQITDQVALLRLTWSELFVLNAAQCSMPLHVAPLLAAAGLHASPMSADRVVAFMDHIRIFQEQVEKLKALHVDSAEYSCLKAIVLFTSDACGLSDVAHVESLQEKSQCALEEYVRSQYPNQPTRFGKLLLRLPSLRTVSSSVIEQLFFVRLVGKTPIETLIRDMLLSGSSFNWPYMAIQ
The data set is described as above. Conditions: protein: recombinant; tags: His, T7 (pET21A); chain copies: 2; blunt.

Data set [6] deals with T5, NKX2-3;COUP-TFII. Put plainly: EMSA; band stronger than on WT CE; supershift with anti-NKX2-3; EMSA: 20 mM Tris pH 8.0, 10 mM KCl, 1 mM DTT, 20% glycerol, 12.5 ng poly dI/C, 6.25 pmol random ss oligo, BSA, 1-2 pmol probe, 4 C. Conditions: protein: recombinant;recombinant, tags: His, T7 (pET21A);His, copies: 1;1, blunt.
In data set [7] the target is T6, COUP-TFII. Put plainly: EMSA; supershift; EMSA: 20 mM Tris pH 8.0, 10 mM KCl, 1 mM DTT, 20% glycerol, 12.5 ng poly dI/C, 6.25 pmol random ss oligo, BSA, 1-2 pmol probe, 4 C. Conditions: protein: recombinant; tags: His, T7 (pET21A); chain copies: 2; blunt.
In data set [8] the target is T7, HEY1 (mouse, UniProt Q9WV93 1-299).
T7 sequence: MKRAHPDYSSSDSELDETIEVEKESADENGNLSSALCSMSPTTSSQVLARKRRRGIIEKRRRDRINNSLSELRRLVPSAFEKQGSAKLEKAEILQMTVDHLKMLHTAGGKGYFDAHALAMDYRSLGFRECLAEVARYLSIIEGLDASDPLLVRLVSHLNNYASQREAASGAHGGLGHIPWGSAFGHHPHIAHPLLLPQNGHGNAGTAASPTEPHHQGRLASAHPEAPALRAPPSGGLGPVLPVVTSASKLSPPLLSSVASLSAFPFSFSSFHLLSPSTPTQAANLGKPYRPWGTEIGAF
Briefly: EMSA; supershift with anti-HEY1 (HRT1); EMSA: 20 mM Tris pH 8.0, 10 mM KCl, 1 mM DTT, 20% glycerol, 12.5 ng poly dI/C, 6.25 pmol random ss oligo, BSA, 1-2 pmol probe, 4 C. Conditions: protein: recombinant; tags: His, T7 (pET21A); chain copies: 2; blunt.

Data set [9] has as its target T5, NKX2-3;COUP-TFII. Briefly: EMSA; EMSA: 20 mM Tris pH 8.0, 10 mM KCl, 1 mM DTT, 20% glycerol, 12.5 ng poly dI/C, 6.25 pmol random ss oligo, BSA, 1-2 pmol probe, 4 C. Conditions: protein: recombinant;recombinant; tags: His, T7 (pET21A);His, T7 (pET21A); copies: 1;1; blunt.
For data set [10], the target named is T3, NKX2-3. Briefly: EMSA; supershift; HEY1 dose-dependently inhibits (Fig S1B); EMSA: 20 mM Tris pH 8.0, 10 mM KCl, 1 mM DTT, 20% glycerol, 12.5 ng poly dI/C, 6.25 pmol random ss oligo, BSA, 1-2 pmol probe, 4 C. To be noted: protein: recombinant; tags: His, T7 (pET21A); blunt.
Data set [11] concerns the target T7, HEY1. Put plainly: EMSA; EMSA: 20 mM Tris pH 8.0, 10 mM KCl, 1 mM DTT, 20% glycerol, 12.5 ng poly dI/C, 6.25 pmol random ss oligo, BSA, 1-2 pmol probe, 4 C. Conditions: protein: recombinant; tags: His, T7 (pET21A); chain copies: 2; blunt.
A further data set deals with NKX2-5;COUP-TFII (mouse;mouse, UniProt P42582;P43135 1-318;1-414, |). Put plainly: EMSA; COUP-TFII tag not stated; EMSA: 20 mM Tris pH 8.0, 10 mM KCl, 1 mM DTT, 20% glycerol, 12.5 ng poly dI/C, 6.25 pmol random ss oligo, BSA, 1-2 pmol probe, 4 C. Conditions: protein: recombinant;recombinant, tags: His, T7 (pET21A);His, copies: 1;1, blunt.
Chain of NKX2-5;COUP-TFII (P42582 whole entry, one chain of several): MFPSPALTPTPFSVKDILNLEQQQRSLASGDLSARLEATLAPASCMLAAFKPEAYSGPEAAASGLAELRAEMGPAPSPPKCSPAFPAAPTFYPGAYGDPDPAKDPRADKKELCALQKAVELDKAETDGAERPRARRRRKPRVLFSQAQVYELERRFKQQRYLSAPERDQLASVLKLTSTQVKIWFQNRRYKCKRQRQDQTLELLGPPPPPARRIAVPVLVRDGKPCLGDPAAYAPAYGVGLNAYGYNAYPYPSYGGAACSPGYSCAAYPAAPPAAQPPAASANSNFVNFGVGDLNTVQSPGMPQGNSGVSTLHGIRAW

This note sets out measurements from PMC9718832, “An NKX-COUP-TFII morphogenetic code directs mucosal endothelial addressin expression” (Nature Communications, 2022).

B1: NKX2-3 (recombinant, His- and T7-tagged) (natural protein, mouse, UniProt P97334 1-362, looked up)
chain: MMLPSPVTSTPFSVKDILNLEQQRHFHGAHLQAELEQHFHSAPCMLATAEGTQFSDAGEEDEEEEGEKLSYLNSLAAAEGHGDSGLCPQSYVHTVLRDACSGPKEQEEEVVSERSQKSCQLKKSLEAAGDCKTSEDGERPKPRSRRKPRVLFSQAQVFELERRFKQQRYLSAPEREHLASSLKLTSTQVKIWFQNRRYKCKRQRQDKSLELGTHAPPPPPRRVAVPVLVRDGKPCVTPSAQTYGSPYGVGAGAYSYNSFPAYGYGNSAAAAAAAAAAAAAAAAYSGSYGCAYPTGGGGGGGGTASAATTAMQPACSATGGGSFVNVSNLGGFGSGGGAQPLHQGAAAGSACTQGTLQGIRAW
notes: Homeobox protein NKX2-3, mouse; cDNA PCR-amplified from mouse cDNA as EcoRI-HindIII fragment and cloned into pET21-A; also called intestinal homeodomain protein NKX2-3; source: E. coli BL21, purified
In the case of B1, the binding result (with GST-tagged COUP-TFII; in [1]) was “binds” in each case.

B2: St6gal1 CE WT (dsDNA)
DNA 1: GAGGCTGGTCAGAGAAGTGTGAAAAG
DNA 2: CTTTTCACACTTCTCTGACCAGCCTC
Turning to B2, the binding result with NKX2-3 [2], in the data set with COUP-TFII-GST and in the data set with NKX2-3;COUP-TFII-GST was “binds” each time.

B3: Madcam1 CE_deltaN_deltaC_A (dsDNA)
DNA 1: CCATGGTCTTGAAAAAAAATGGTGACCCACCTCC
DNA 2: GGAGGTGGGTCACCATTTTTTTTCAAGACCATGG
Consider B3, for which the binding result is “binds” in the data set with NKX2-3;COUP-TFII [3], “no binding” with NKX2-3 [4] and “binds” with COUP-TFII [5].

B4: Madcam1 CE_deltaC_A (dsDNA)
DNA 1: CCATGCACTTGAAAAAAAATGGTGACCCACCTCC
DNA 2: GGAGGTGGGTCACCATTTTTTTTCAAGTGCATGG
In the case of B4, the binding result in the data set with NKX2-3;COUP-TFII [6] is reported as “binds”.

B5: Madcam1 CE WT (dsDNA)
DNA 1: CCATGCACTTGACCCACCATGGTGACCCACCTCC
DNA 2: GGAGGTGGGTCACCATGGTGGGTCAAGTGCATGG
Turning to B5, the binding result with COUP-TFII [7], with HEY1 [8], with NKX2-3;COUP-TFII [9] and in the data set with NKX2-3 [10] was “binds” in each case.

B6: Madcam1 CE_deltaE/N (m1) (dsDNA)
DNA 1: CCATGGTCTTGACCCACCATGGTGACCCACCTCC
DNA 2: GGAGGTGGGTCACCATGGTGGGTCAAGACCATGG
For the molecule B6, the binding result in the data set with NKX2-3 [4] and with HEY1 [11] was “no binding” each time.

B7: Tbx5 NCCE (dsDNA)
DNA 1: CCGCTGACCCGACCCTTAATAAGGCA
DNA 2: TGCCTTATTAAGGGTCGGGTCAGCGG
B7: the binding result with NKX2-5;COUP-TFII is reported as “binds”.

B8: Etv2 NCCE (dsDNA)
DNA 1: CCTGCAACTTGACCCAGGCTGCGACCCCCAGC
DNA 2: GCTGGGGGTCGCAGCCTGGGTCAAGTTGCAGG
For the molecule B8, in the data set with NKX2-5;COUP-TFII, the binding result was “binds”.
